Here are results for 3 variants from IntAct's records for PubMed 21239581.

B1: Chromosomal replication initiator protein DnaA (Bacillus subtilis), P05648 (parent)
chain: MENILDLWNQALAQIEKKLSKPSFETWMKSTKAHSLQGDTLTITAPNEFARDWLESRYLHLIADTIYELTGEELSIKFVIPQNQDVEDFMPKPQVKKAVKEDTSDFPQNMLNPKYTFDTFVIGSGNRFAHAASLAVAEAPAKAYNPLFIYGGVGLGKTHLMHAIGHYVIDHNPSAKVVYLSSEKFTNEFINSIRDNKAVDFRNRYRNVDVLLIDDIQFLAGKEQTQEEFFHTFNTLHEESKQIVISSDRPPKEIPTLEDRLRSRFEWGLITDITPPDLETRIAILRKKAKAEGLDIPNEVMLYIANQIDSNIRELEGALIRVVAYSSLINKDINADLAAEALKDIIPSSKPKVITIKEIQRVVGQQFNIKLEDFKAKKRTKSVAFPRQIAMYLSREMTDSSLPKIGEEFGGRDHTTVIHAHEKISKLLADDEQLQQHVKEIKEQLK
partner: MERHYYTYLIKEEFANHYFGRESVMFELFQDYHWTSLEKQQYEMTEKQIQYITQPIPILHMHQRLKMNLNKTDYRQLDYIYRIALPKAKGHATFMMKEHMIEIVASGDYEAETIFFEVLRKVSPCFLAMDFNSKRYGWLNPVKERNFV

In the assay the parent is B1. Particulars: with sira_bacsu sirA.
For N47D, the “effect of a mutation on the interaction” value is given as “disrupting interaction”. With A50T, the “effect of a mutation on the interaction” value is on record as “disrupting interaction”. For F49Y the value was “disrupting interaction”.
